# B1: LNT103: fusion polypeptide [Cecropin A]-[linker (GSGSGS)]-[endolysin LNT102]; SEQ ID NO: 15 (MAS, His tag) used in the tests (protein)
# chain: MASKWKLFKKIEKVGQNIRDGIIKAGPAVAVVGQATQIAKGSGSGSMGTVLKRGDRGSAVEDLQMKLNVAGYNLSADGIFGGDTEKAVRDVQAGAGLVVDGKVGPKTLYAIAKSATVPAKWEAIPFPTANKSRSAAMPTLNAVGAMTGVDSRLLATFASIESAFDYTVKAKTSSATGWFQFLDATWDDMIKAYGSKYGIPKDPTRALRKDPRANALMGAEFIKGNAAVLRPVINREPSDTDLYLAHFLGAGGAKKFLSADQKTLGEVLFPKPAKANPSIFSNKGVPRTLAEIYKLFEDKVSKHRALEHHHHHH
# modifications: synthetic_Fusion Polypeptide LNT103 with MAS, His tag, and extra sequence
# B2: LNT101: endolysin derived from bacteriophage PBPA90, amino acid sequence SEQ ID NO: 1 (259 aa), purified with 6× His tag (protein)
# chain: MGTVLKRGDRGSAVEDLQMKLRVAGYAVSADGIFGGDTEKAVRDFQASKALVVDGKVGPATLAELAKSATVPAKWEAIPFPTANKSRSAAMPTLNAVGAMTGTDSRLLATFASIESAFDYTVKASTSSATGWFQFLDATWDDMIKAHGSKYGIPKDPTRALRKDPRANALMGAEFLKGNAAVLRPVINREPSDTDLYLAHFLGAGGAKKFLSADQKTLGEVLFPKPAKANPSIFSNKGVPRTLAEIYKLFEDKVSKHRA
# modifications: 6xHis tag; synthetic_Endolysin LNT101
# Tests used:
# Assay type in all cases: cell-based
# [1] = system: gram negative bacterium; test: CFU reduction evaluation on various gram negative bacterium
# Protocol: For this, Endolysin LNT101 and LNT102 at a concentration of 2 μM and each 1×10^6 CFU of Pseudomonas aeruginosa (PA01; ATCC 15692), Acinetobacter baumannii (ATCC 17978), Escherichia coli (ATCC 8739), Klebsiella pneumoniae (ATCC 13883), Enterobacter aerogenes (CCARM 16006), and Salmonella enteritidis (ATCC 13076) was added in reaction buffer (20 mM Tris-Cl, pH 7.5) so that the final volume was 200 μl, and it was left at 37° C. for 2 hours. In 2 hours, the number of colonies of each gram negative bacterium was confirmed, and the result was shown in FIG. 8 (in FIG. 8, PA90 represents endolysin LNT101 and mtPA90 represents endolysin LNT102, respectively).
# The endolysin LNT102 at a concentration of 0.1, 0.5, 2.5 μM, and each 1×10^6 CFU of Pseudomonas aeruginosa, Acinetobacter baumannii, and Escherichia coli was added in reaction buffer (20 mM Tris-Cl, pH 7.5) so that the final volume was 200 μl, and it was left at 37° C. for 2 hours.
# (§1) In order to confirm the killing ability against gram negative bacterium of the fusion polypeptide LNT103 prepared in Example 3.2, CFU reduction evaluation was performed for various gram negative bacterium. In order to perform the CFU reduction evaluation, 2 μM of each of LNT101, LNT102, and LNT103 prepared in Example 3, and 1×10^6 CFU of each of Pseudomonas aeruginosa (PA01; ATCC 15692), Acinetobacter baumannii (ATCC 17978), Escherichia coli (ATCC 8739), Klebsiella pneumoniae (ATCC 13883), and Enterobacter aerogenes (CCARM 16006) were added to reaction buffer (20 mM Tris-Cl, pH7.5) so that the final volume was 200 μl, and it was left at 37° C. for 2 hours. After that, the number of the colonies of each gram negative bacterium was confirmed to compare and evaluate the antibiotic effect of each polypeptide. As a control group, the PBS treatment group (treating PBS in the same volume as the fusion polypeptide) was used.
# In addition, the same test was performed by using the fusion polypeptide LNT103, and CecA-LNT101 at a concentration of 2 μM, and the result was shown in FIG. 15. For comparison, the same test was performed for groups treated with LNT102 or PBS.
# On the other hand, in order to compare the antibacterial activity in case that a protein other than endolysin (LNT102 or LNT101) was fused to Cecropin A, the killing ability against gram negative bacterium of the fusion polypeptide LNT103 and cecropin A-EGFP fusion protein (a protein in which EGFP (GenBank Accession No. AAB02572.1) having no endolysin activity by replacing LNT102 in LNT103) was evaluated. For this, the proteins were treated in an amount of 0.2 μM or 2 μM, respectively, to perform the CFU reduction test. […] In particular, it could be confirmed that the CFU Counting result for all the tested gram negative bacterium killed all bacterium treated with 0, when LNT103 2 μM was treated.
# Furthermore, the killing ability against gram negative bacterium according to the concentration and/or treatment time of the fusion polypeptide LNT103 was tested. Specifically, the fusion polypeptide LNT103 at a concentration of 0.1, 0.3, 0.9, or 2.7 μM and 1×10^6 CFU of Pseudomonas aeruginosa (PA01; ATCC 15692) or Acinetobacter baumannii (ATCC 19606) were added to reaction buffer (20 mM Tris-Cl, pH7.5) so that the final volume was 200 μl, and it was left at 37° C. for 2 hours, and then the number of the colonies was confirmed, and the result was shown in A of FIG. 17.
# In addition, the fusion polypeptide LNT103 at a concentration of 2 μM and 1×10^6 CFU of Pseudomonas aeruginosa (PA01; ATCC 15692) were added to reaction buffer (20 mM pH7.5) so that the final volume was 200 μl, and in 0, 20 minutes, 40 minutes and 60 minutes at 37° C., the number of the colonies was confirmed, and the result was shown in B of FIG. 17. […]
# [2] = system: Acinetobacter baumannii; test: CFU reduction test
# Protocol: In addition, that the LNT101 endolysin had the antibacterial ability in various gram negative bacterium was confirmed by a CFU reduction test, and the result was shown in Table 2 below.
# as §1
# [3] = system: Pseudomonas aeruginosa; test: Spot test (halo zone); set-up: key: ‘◯’ means production of the halo zone
# Description: (§2) In the present example, in order to investigate a target bacteria spectrum of the bacteriophage PBPA90 selected in the Examples 1.1 and 1.2 and endolysin LNT101 separated and purifying in the Example 1.3, the antibacterial activity against gram negative bacterium such as Pseudomonas aeruginosa ATCC13388, ATCC9027, ATCC10145, ATCC15692, ATCC15522, ATCC25619, ATCC27853, CCARM2134, CCARM2200, CCARM2029, CCARM2144, CCARM2298, CCARM2326, PR01957, E. coli ATCC8739, Enterobacter cloacae CCARM0252, Klebsiella pneumoniae KCTC2261, Klebsiella aerogenes CCARM16006, Campylobacter jejuni KCTC5327, Cronobacter sakazakii KCTC2949, Salmonella typhimurium ATCC14028, Salmonella enteritidis ATCC13076 was tested.
# (§3) The target bacteria spectrum of the bacteriophage PBPA90 and endolysin LNT101 was confirmed by a spot test. For the spot test, bacterium sterilized in 4 ml top agar (1% Tryptone, 0.5% Yeast extract, 0.5% NaCl, 0.7% agar) of 1×10^11 CFU/200 μl were added and poured to a LB plate. After hardening the top agar, the bacteriophage PBPA90 10 μl (1×10^8 PFU/ml) or LNT101 10 μl (2 mg/ml) was spotted, and it was incubated at 37° C. for 18 hours.
# [4] = system: Klebsiella aerogenes; test: Spot test (halo zone); set-up: key: ‘◯’ means production of the halo zone; details: K. aerugenes CCARM 16006
# Description: as §2, §3
# [5] = system: Cronobacter sakazakii; test: Spot test (halo zone); set-up: key: ‘◯’ means production of the halo zone; details: C. sakazakii KCTC 2949
# Description: as §2, §3
molecule,measurement,setting,value
B1,antibacterial activity (CFU reduction test),[1]; 0.2 μM or 2 μM (FIG. 16),had excellent antibacterial activity
same,CFU reduction effect compared to LNT101 and LNT102,"[1]; 2 μM, 2 hours, 37° C., 1×10^6 CFU of each gram negative bacterium",1.5˜5.5 log CFU/ml
same,counting result,"[1]; 2 μM, all the tested bacterium (FIG. 15)",0 log CFU/ml
same,CFU Counting result,"[1]; LNT103 2 μM, all the tested gram negative bacterium (FIG. 16)",0
same,killing ability (number of colonies),"[1]; P. aeruginosa PA01 and A. baumannii ATCC 19606, 0.1-2.7 μM 2 hours, 2 μM 0-60 minutes, 1 μM 0-10 minutes",had the killing ability against gram negative bacterium in a concentration and time-dependent manner
same,CFU Counting result,"[2]; Acinetobacter baumannii (ATCC 19606, ATCC 17978), 2 μM, 2 hours",0 log CFU/ml
B2,killing ability (number of colonies),"[1]; 2 μM, 2 hours, 37° C., P. aeruginosa PA01, A. baumannii ATCC 17978, E. coli ATCC 8739, K. pneumoniae ATCC 13883, E. aerogenes CCARM 16006, S. enteritidis ATCC 13076",excellent killing ability compared to the control group
same,CFU reduction,[2]; A. baumannii ATCC 2508,◯ (‘◯’ means reduction of 0.5 log CFU or more through the CFU reduction assay)
same,CFU reduction,[2]; A. baumannii F4,◯ (‘◯’ means reduction of 0.5 log CFU or more through the CFU reduction assay)
same,CFU reduction,[2]; A. baumannii F15,◯ (‘◯’ means reduction of 0.5 log CFU or more through the CFU reduction assay)
same,production of the halo zone,[3]; P. aeruginosa ATCC 9027,◯
same,production of the halo zone,[3]; P. aeruginosa ATCC 10145,◯
same,production of the halo zone,"[3]; P. aeruginosa ATCC 13388, 10 μl (2 mg/ml), 37° C. 18 hours",◯
same,production of the halo zone,[3]; P. aeruginosa ATCC 15522,◯
same,production of the halo zone,[3]; P. aeruginosa ATCC 15692,◯
same,production of the halo zone,[3]; P. aeruginosa ATCC 25619,◯
same,production of the halo zone,[3]; P. aeruginosa ATCC 27853,◯
same,production of the halo zone,[3]; P. aeruginosa CCARM 2029,◯
same,production of the halo zone,[3]; P. aeruginosa CCARM 2134,◯
same,production of the halo zone,[3]; P. aeruginosa CCARM 2144,◯
same,production of the halo zone,[3]; P. aeruginosa CCARM 2200,◯
same,production of the halo zone,[3]; P. aeruginosa CCARM 2298,◯
same,production of the halo zone,[3]; P. aeruginosa CCARM 2326,◯
same,production of the halo zone,[3]; P. aeruginosa PR1957,◯
same,production of the halo zone,[4],◯
same,production of the halo zone,[5],◯
